Reference: the supplement of paper PMC9732359
± gives the uncertainty stated by the source.

Test: protein stability index of a GFP-peptide fusion (yeast GPS) (PSI 1-4); higher = more stable; sorted into four equal gates, so the index is relative within each strain
How it was run: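 Yeast carrying a pooled library were grown to mid-log phase in leucine-free medium. Each library plasmid expresses Cherry and has a tiled 17-residue yeast protein peptide fused downstream of GFP. Cells were sorted into four equal gates by GFP/Cherry ratio, and plasmids from each gate were PCR-amplified, Illumina-sequenced and assigned to strains by barcode. Summing, across gates, the read frequency times the gate number gave each peptide's protein stability index.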

Sequence | protein stability index (pdr5∆) | protein stability index (ubr1∆) | protein stability index (doa10∆) | protein stability index (san1∆)
EIITSLSMRFQRETSGM [SRB8] | 2.28 ± 0.18 | 2.47 ± 0.17 |  | 
LIFGTIASKMSLAPEAD [RPT3] | 2.78 ± 0.064 | 2.65 ± 0.038 | 2.66 ± 0.044 | 2.75 ± 0.041
KFPTRKIYMLYSLQPSV [RPC34] | 2.13 ± 0.23 |  |  | 
GNNNNNNSGNDNNNTTN [MED2] | 3.05 ± 0.058 | 2.93 ± 0.078 | 3.06 ± 0.056 | 3.08 ± 0.045
HGYFLQDKEKIDNLKDT [ITC1] | 3.41 ± 0.069 | 3.42 ± 0.057 | 3.18 ± 0.072 | 3.24 ± 0.057
MSGILHCEDKDYKTAFS [RPN6] | 2.89 ± 0.071 | 3.16 ± 0.049 | 2.95 ± 0.07 | 2.51 ± 0.072
QEGLAKFGACVAQGIMN [RPN2] | 1.75 ± 0.042 | 1.58 ± 0.051 | 1.79 ± 0.058 | 1.88 ± 0.14
LLIRSKTEDPKGGIIAS [YML031W/NDC1] | 2.36 ± 0.085 | 2.66 ± 0.17 | 2.37 ± 0.14 | 2.28 ± 0.085
HHNDISNDSQSHFDYNT [YCG1] | 2.16 ± 0.17 | 2.39 ± 0.16 | 1.89 ± 0.18 | 2.49 ± 0.14
EIQPRANIQLDFPELKP [FAS2] | 3.11 ± 0.063 | 3.26 ± 0.042 | 3.13 ± 0.064 | 3.12 ± 0.076
ASSKAVTRGISVLKDSD [PRE1] | 2.76 ± 0.05 | 2.67 ± 0.052 | 2.4 ± 0.058 | 2.89 ± 0.051
SCAIHARIVRVRSREDR [RPS26A] | 1.39 ± 0.11 | 2.62 ± 0.089 | 2.41 ± 0.14 | 1.4 ± 0.18
KNLSLQTGTKPVLKKKA [COR1] | 3.05 ± 0.095 | 2.79 ± 0.076 | 2.95 ± 0.07 | 3.09 ± 0.06
TRVRLPSGAKKVISSDA [RPL2A] | 3.27 ± 0.084 | 3.26 ± 0.072 | 3.25 ± 0.092 | 3.26 ± 0.049
FSFGGTQTGQNTGPSTG [YGL172W/NUP49] | 3.34 ± 0.17 | 3.1 ± 0.11 | 3.59 ± 0.23 | 3.18 ± 0.1
RENALYDYYALQLLPLQ [SNF2] | 2.74 ± 0.045 | 2.77 ± 0.042 | 2.63 ± 0.078 | 2.72 ± 0.056
LQFRPAPMYILDEVDAA [SMC2] | 1.89 ± 0.25 | 1.89 ± 0.1 | 1.59 ± 0.2 | 
VTNDLDTSAEKDQIQAG [SIR4] | 3.36 ± 0.12 | 3.21 ± 0.073 | 3.32 ± 0.12 | 3.28 ± 0.11
PLGKILLKGDNITLITS [SME1] | 3.12 ± 0.13 | 3.07 ± 0.061 | 1.9 ± 0.093 | 1.89 ± 0.16
TARINNRRLFKKCIDFF [RRI2] | 2.18 ± 0.059 | 2.18 ± 0.054 | 2 ± 0.082 | 1.91 ± 0.11
AIMSKSSLEELLLKDQQ [ECM29] | 2.93 ± 0.073 | 2.98 ± 0.05 | 2.83 ± 0.09 | 2.83 ± 0.1
SYAVSPYAQKPLQGIFH [QCR8] | 2.4 ± 0.061 | 2.6 ± 0.052 | 2.51 ± 0.082 | 2.54 ± 0.054
RALVEHIIQAKADAQRE [RPL19A] |  |  | 1.67 ± 0.26 | 
IDRGLFRSLFFRSYMDQ [RPB2] | 2.88 ± 0.27 | 2.94 ± 0.084 | 3 ± 0.27 | 1.86 ± 0.25
AQFIVISLRNNMFELAQ [SMC4] | 1.67 ± 0.082 | 2.02 ± 0.09 | 2.14 ± 0.11 | 1.51 ± 0.092
KALAIFVPVPSLAGFHK [RPS7A] | 1.93 ± 0.04 | 1.85 ± 0.039 | 2.29 ± 0.051 | 1.77 ± 0.069

Sequence | protein stability index (pdr5∆) | protein stability index (ubr1∆) | protein stability index (doa10∆) | protein stability index (san1∆)
HTPMVNFESISARSSVH [SRB8] | 1.97 ± 0.032 | 2.12 ± 0.025 | 2.08 ± 0.043 | 1.79 ± 0.051
EEELFEVTKEEDIIANY [RRP43] | 3.08 ± 0.073 | 3.43 ± 0.077 | 3.17 ± 0.088 | 3.19 ± 0.11
KRQFNNSYWLIILLGVL [ITC1] | 1.6 ± 0.056 | 1.97 ± 0.04 | 2.16 ± 0.066 | 1.5 ± 0.1
DAAAEKRNGDEVYTLVD [ARP7] | 3.35 ± 0.063 | 3.06 ± 0.056 | 3.28 ± 0.074 | 3.42 ± 0.046
PTKLLVSEVAKIMQEAT [PRE8] | 2.58 ± 0.085 | 2.73 ± 0.062 | 2.63 ± 0.067 | 2.72 ± 0.11
LDDWISIGYETELKKIT [IRR1] | 2.75 ± 0.078 | 2.58 ± 0.053 | 2.09 ± 0.07 | 2.33 ± 0.14
QTQAIAQQQQLSNYPQQ [YGR119C/NUP57] | 3.15 ± 0.062 | 2.97 ± 0.046 | 2.79 ± 0.058 | 2.58 ± 0.048
ASEYIETLGLKYLGLKP [FAS1] | 3.35 ± 0.093 | 3.06 ± 0.089 | 3.27 ± 0.095 | 3.26 ± 0.074
FFLRDTLLWNKNDKLIK [SNF5] | 2.04 ± 0.059 | 2.42 ± 0.027 | 2.4 ± 0.062 | 2.06 ± 0.067
LKFNHGNYSHLMEKNRI [REC8] | 2.47 ± 0.056 | 2.52 ± 0.052 | 2.06 ± 0.073 | 2.28 ± 0.064
HVPEKKSTDLTPKGNES [MTR3] | 2.43 ± 0.13 | 3.11 ± 0.096 | 2.97 ± 0.12 | 2.66 ± 0.084
THRNKDGTGVRVIVAGT [FAS1] | 1.59 ± 0.082 | 1.6 ± 0.15 | 2.16 ± 0.26 | 1.62 ± 0.21
SEYDRGVSTFSPEGRLF [PUP2] | 3.28 ± 0.1 | 3.31 ± 0.065 | 3.43 ± 0.1 | 3.32 ± 0.096
DVVAHRQLAGAIGYEPL [DIS3] | 2.43 ± 0.075 | 2.19 ± 0.11 | 2.65 ± 0.074 | 1.88 ± 0.15
NRLSRIHLYMLTFHTLK [YLR018C/POM34] | 1.58 ± 0.06 | 1.44 ± 0.047 | 1.42 ± 0.068 | 1.54 ± 0.12
LKSFTESTAGSASTSAT [ECM29] | 3.14 ± 0.061 | 3.15 ± 0.04 | 2.82 ± 0.067 | 3.06 ± 0.053
HWNLPGERIFNKIRNLE [SIR2] | 3.23 ± 0.097 | 3.29 ± 0.068 | 3.3 ± 0.098 | 3.2 ± 0.056
DTGTLDTKSVVGLVMFS [RPN2] | 2.66 ± 0.084 | 2.42 ± 0.069 | 2.67 ± 0.083 | 2.91 ± 0.075
RITDASLFQLSKLGKNL [GRR1] | 2.55 ± 0.05 | 2.51 ± 0.036 | 2.38 ± 0.045 | 2.12 ± 0.061
STVKKKDIVNISIPKTC [REC8] | 2.41 ± 0.063 | 2.62 ± 0.054 | 2.71 ± 0.088 | 2.53 ± 0.084
LAAMAVLESHWKQDLTK [PUP1] | 3.24 ± 0.14 | 3.71 ± 0.18 | 3.24 ± 0.16 | 2.48 ± 0.21
KKMGVPYAIIKGKARLG [RPL8B] | 2.12 ± 0.15 | 3.41 ± 0.28 | 2.15 ± 0.15 | 2.11 ± 0.17
VQQFAQLPVGFKNMGNT [UBP6] | 1.74 ± 0.076 | 1.92 ± 0.06 | 2.03 ± 0.1 | 1.44 ± 0.15
VEWNDQVEKLGKKMEAR [RPN9] | 3.28 ± 0.15 | 3.34 ± 0.14 |  | 3.29 ± 0.12
NQLVAKLLLLRINSTDE [SRB8] | 1.22 ± 0.17 | 1.14 ± 0.055 | 1.67 ± 0.11 | 
DLYEQIGIDPPRGVLLY [RPT3] | 3.02 ± 0.1 | 2.9 ± 0.08 | 2.6 ± 0.073 | 2.8 ± 0.055
